Assay [1] deals with FG-Nup214 labelled for stopped-flow anisotropy. Kind of assay: stopped-flow fluorescence anisotropy; association under pseudo-first order conditions (>10-fold excess of the NTR); kobs from single exponential fits, kon from the slope of kobs versus NTR concentration; excitation 532 nm. On the technique in general: Polarisation of emitted light reports the rotation of a fluorescent probe.

Assay [2] has as its target FG-Nup214^Glc labelled for stopped-flow kinetics. The description is as above.
Assay [3] concerns the target FG-Nup214 labelled for stopped-flow anisotropy. Kind of assay: stopped-flow fluorescence, dissociation; preformed FG-Nup⋅NTR complex rapidly mixed with 100× (2 μM) excess of unlabeled FG-Nup.
Assay [4] addresses FG-Nup214^117 (117-aa fragment of FG-Nup214), wild type, labelled for FRET. The assay is described as follows: single-molecule FRET (smFRET) titration; fractions of bound (low E_FRET) and unbound (high E_FRET) FG-Nup214^117 as a function of CRM1 concentration, with 1 μM RanGTP.
Assay [5] has as its target FG-Nup214^117 proline double mutant A1927P/A2017P. Described as above.
The target in assay [6] is FG-Nup214^117 proline triple mutant A1927P/A2017P/A2019P. The assay is described as above.
For assay [7], the target named is FG-Nup153 labelled for stopped-flow kinetics. Kind of assay: stopped-flow fluorescence, dissociation; preformed FG-Nup⋅NTR complex rapidly mixed with 100× (2 μM) excess of unlabeled FG-Nup.
Assay [8] has as its target FG-Nup153^Glc labelled for stopped-flow kinetics. Kind of assay: stopped-flow fluorescence anisotropy; association under pseudo-first order conditions (>10-fold excess of the NTR); kobs from single exponential fits, kon from the slope of kobs versus NTR concentration; excitation 532 nm.
Assay [9] concerns the target T1, CRM1 (export receptor, exportin) (UniProt O14980 1-1071).
T1 construct: exportin CRM1; Construct details in the Supplemental Experimental Procedures; also called exportin CRM1
Kind of assay: stopped-flow fluorescence (donor signal of a FRET-labelled sample); association; donor signal change of FRET-labelled FG-Nup214 instead of anisotropy. The note with it: both partners purified.

T1 sequence (O14980 whole entry): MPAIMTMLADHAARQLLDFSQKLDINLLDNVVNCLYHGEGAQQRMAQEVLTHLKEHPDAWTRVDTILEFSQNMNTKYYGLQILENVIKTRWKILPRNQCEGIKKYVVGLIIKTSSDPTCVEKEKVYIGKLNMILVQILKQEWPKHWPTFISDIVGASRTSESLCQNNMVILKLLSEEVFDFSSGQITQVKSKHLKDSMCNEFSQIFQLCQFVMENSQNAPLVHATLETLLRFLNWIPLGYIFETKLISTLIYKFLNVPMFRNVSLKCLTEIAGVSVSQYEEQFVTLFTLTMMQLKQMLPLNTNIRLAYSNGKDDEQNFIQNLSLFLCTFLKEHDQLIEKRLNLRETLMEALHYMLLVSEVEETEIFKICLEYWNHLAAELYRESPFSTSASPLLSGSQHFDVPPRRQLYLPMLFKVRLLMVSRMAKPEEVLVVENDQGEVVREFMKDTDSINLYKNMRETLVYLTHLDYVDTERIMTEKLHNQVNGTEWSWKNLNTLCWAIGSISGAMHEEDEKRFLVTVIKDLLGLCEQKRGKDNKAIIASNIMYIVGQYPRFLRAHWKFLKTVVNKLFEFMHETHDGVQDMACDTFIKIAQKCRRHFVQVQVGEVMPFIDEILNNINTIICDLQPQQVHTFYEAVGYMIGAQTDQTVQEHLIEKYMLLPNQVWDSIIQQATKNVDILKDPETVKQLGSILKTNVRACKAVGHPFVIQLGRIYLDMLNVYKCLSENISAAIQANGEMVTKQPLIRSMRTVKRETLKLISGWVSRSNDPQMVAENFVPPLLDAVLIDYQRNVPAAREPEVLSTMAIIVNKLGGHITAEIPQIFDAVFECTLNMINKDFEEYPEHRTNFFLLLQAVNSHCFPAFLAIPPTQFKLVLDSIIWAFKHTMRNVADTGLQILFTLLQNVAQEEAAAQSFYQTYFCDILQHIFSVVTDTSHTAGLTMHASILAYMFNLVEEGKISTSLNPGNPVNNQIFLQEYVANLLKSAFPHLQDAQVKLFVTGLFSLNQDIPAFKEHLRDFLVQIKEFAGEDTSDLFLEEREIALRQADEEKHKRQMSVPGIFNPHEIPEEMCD

Consider “CRM1 (export receptor, exportin) (from UniProt O14980 1-1071)”, for which the kon – broadly, the rate constant with which the complex forms – in assay [1] stood at 4e+07 M⁻¹ s⁻¹; in [2] it was 3.8e+07 M⁻¹ s⁻¹.

For “CRM1⋅RanGTP complex (from UniProt O14980 1-1071; P62826 1-216)”, in assay [3], the complex half-life was found to be 5 s. The koff (in general, a measure of how fast the partners let go of each other) in [3] turned out to be 0.14 s⁻¹. Further, the Kd (usually a measure of binding affinity in units of concentration) in assay [4] worked out at 35 nM; in assay [5], 53 nM; in assay [6] it was 222 nM. For the same molecule, the kon came out at 2.1e+07 M⁻¹ s⁻¹ in [1] and 1.3e+07 M⁻¹ s⁻¹ in assay [2].

In assay [7], “Importinβ (import receptor) (from UniProt Q14974 1-876)” returned a complex half-life of 0.08 s and a dissociation rate constant (koff) of 8.7 s⁻¹. In [8], the kon is 8.5e+08 M⁻¹ s⁻¹.

B1: FG-Nup214 (FG domain of Nup214), double-labelled for FRET (domain or fragment)
chain: ATTTSVAPPAATSTSSTAVFGSLPVTSAGSSGVISFGGTSLSAGKTSFSFGSQQTNSTVPPSAPPPTTAATPLPTSFPTLSFGSLLSSATTPSLPMSAGRSTEEATSSALPEKPGDSEVSASAASLLEEQQSAQLPQAPPQTSDSVKKEPVLAQPAVSNSGTAASSTSLVALSAEATPATTGVPDARTEAVPPASSFSVPGQTAVTAAAISSAGPVAVETSSTPIASSTTSIVAPGPSAEAAAFGTVTSGSSVFAQPPAASSSSAFNQLTNNTATAPSATPVFGQVAASTAPSLFGQQTGSTASTAAATPQVSSSGFSSPAFGTTAPGVFGQTTFGQASVFGQSASSAASVFSFSQPGFSSVPAFGQPASSTPTSTSGSVFGAASSTSSSSSFSFGQSSPNTGGGLFGQSNAPAFGQSPGFGQGGSVFGGTSAATTTAATSGFSFCQASGFGSSNTGSVFGQAASTGGIVFGQQSSSSSGSVFGSGNTGRGGGFFSGLGGKPSQDAANKNPFSCASGGFGSTATSNTSNLFGNSGAKTFGGFASSSFGEQKPTGTFSSGGGSVASQGFGFSSPNKTGGFGAAPVFGSPPTFGGSPGFGGVPAFGSAPAFTSPLGSTGGKVFGEGTAAASAGGFGFGSSSNTTSFGTLASQNAPTFGSLSQQTSGFGTQSSGFSGFGSGTGGFSFGSNNSSVQGFGGWRS
modifications: Alexa594-maleimide (acceptor) on the Cys introduced at 1,905; p-acetylphenylalanine (AcF) at 2,043 labelled with Alexa488-hydroxylamine (donor)
The molecule B1 had an association rate constant (kon) in assay [9] of 3e+07 M⁻¹ s⁻¹.

For the origin of these results see publication PMC5898484, “Two Differential Binding Mechanisms of FG-Nucleoporins and Nuclear Transport Receptors” (Cell Reports, 2018).
